We go through one molecule from patent US20240158515A1 (Regeneron, published 2024).

The target of assay [1] is T1, full length human FGFR3b S249C on BaF3 cells (BAF3/FGFR3b_S249C, ACL11986) (human, UniProt P22607 23-808). Description: cell-based or functional assay.
Assay [2] concerns the target full length human FGFR3b on BaF3 cells (BAF3/FGFR3b, ACL11991) (human, UniProt P22607 23-808). Description: cell-based or functional assay.
In assay [3] the target is T2, human FGFR3b expressed with a C-terminal myc-myc-hexahistidine tag (hFGFR3b.mmH) (human).
T2 construct: also called REGN3152; monomeric human FGFR3b
T2 chain: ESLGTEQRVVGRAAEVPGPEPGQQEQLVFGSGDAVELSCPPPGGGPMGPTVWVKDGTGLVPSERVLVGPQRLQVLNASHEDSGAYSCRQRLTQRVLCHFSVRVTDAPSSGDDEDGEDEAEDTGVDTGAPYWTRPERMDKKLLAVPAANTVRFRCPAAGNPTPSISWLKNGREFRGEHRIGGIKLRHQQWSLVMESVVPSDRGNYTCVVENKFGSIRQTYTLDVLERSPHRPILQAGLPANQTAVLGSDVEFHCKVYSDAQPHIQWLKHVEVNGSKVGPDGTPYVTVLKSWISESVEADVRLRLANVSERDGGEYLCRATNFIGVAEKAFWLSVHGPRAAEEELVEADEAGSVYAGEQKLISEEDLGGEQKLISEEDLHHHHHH
Description: SPR Biacore, mAb captured on anti-hFc, 25C. In general terms: In SPR one partner is held on a chip, and binding of the other changes the refractive index at the surface.

The target of assay [4] is T3, human FGFR3b expressed with a C-terminal murine Fc tag (hFGFR3b.mFc) (human).
T3 construct: called dimeric; also called REGN3153; dimeric human FGFR3b
T3 chain: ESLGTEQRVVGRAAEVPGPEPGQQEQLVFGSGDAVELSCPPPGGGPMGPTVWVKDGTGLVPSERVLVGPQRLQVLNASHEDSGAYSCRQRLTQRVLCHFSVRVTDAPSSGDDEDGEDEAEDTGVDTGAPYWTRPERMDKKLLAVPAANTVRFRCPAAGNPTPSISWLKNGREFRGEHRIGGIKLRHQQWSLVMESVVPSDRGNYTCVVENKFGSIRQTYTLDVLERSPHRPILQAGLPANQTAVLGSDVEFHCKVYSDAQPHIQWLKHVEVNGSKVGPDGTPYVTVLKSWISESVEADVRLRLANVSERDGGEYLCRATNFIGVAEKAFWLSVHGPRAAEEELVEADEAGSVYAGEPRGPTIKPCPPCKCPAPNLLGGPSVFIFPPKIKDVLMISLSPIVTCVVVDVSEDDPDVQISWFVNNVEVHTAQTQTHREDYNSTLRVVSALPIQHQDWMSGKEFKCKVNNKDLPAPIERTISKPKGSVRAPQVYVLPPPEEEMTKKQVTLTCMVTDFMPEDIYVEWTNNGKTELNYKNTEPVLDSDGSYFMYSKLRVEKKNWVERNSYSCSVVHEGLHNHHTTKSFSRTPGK
In words: SPR Biacore, mAb captured on anti-hFc, 25C.

Assay [5] concerns the target full length human FGFR3b S249C/V557M on BaF3 cells (human, UniProt P22607 23-808). Description: cell-based or functional assay.
Assay [6] addresses T1, full length human FGFR3b S249C on BaF3 …. Description: cell-based or functional assay. This is another data set of the same source.
The target of assay [7] is full length human FGFR3b S249C/V557L on BaF3 cells (human, UniProt P22607 23-808). Description: cell-based or functional assay.
Assay [8] addresses T3, human FGFR3b expressed with a …. In words: competition ELISA: 4 nM hFGFR3b-mFc binding to plate-coated hFGF acidic.
Assay [9] deals with T4, human FGFR3c expressed with a C-terminal myc-myc-hexahistidine tag (hFGFR3c.mmH) (human, UniProt P22607 23-375).
T4 construct: also called REGN3155; monomeric human FGFR3c
In words: SPR Biacore, mAb captured on anti-hFc, 25C; row marked NB.

B1: H4H30063P (antibody, human IgG4 S228P, kappa, V domains shown)
VH: QVQLQESGPGLVKPSETLSLTCTVSGDSINSYFWSWIRQLPGKELEWIGHIYSSGSTRYNPSLQSRVTISIDTSKNQFSLKLSSVTAADTAVYYCARGASAVDYWGQGTLVTVSS
VL: EIVLTQSPGTLSLSPGERATLSCRTSQSISSGYLAWYQQKPGQAPRLLIYGASRRATGIPDRFSGSGSGTDFTLTISRLEPEDFVVYYCQQYGSSPYTFGQGTKLEIKR
notes: HCVR 2, LCVR 10; also called REGN15684
In the case of B1, in [1], the “IC50 [M], BaF3 proliferation (CellTiter-Glo) with 1 nM FGF1 + 5 ug/ml heparin” value was 5.08e-10 M and the “Max Blocking (%), BaF3 proliferation (CellTiter-Glo) with 1 nM FGF1 + 5 ug/ml heparin” value amounted to 93.4%. Further, in assay [2], the “IC50 [M], BaF3 proliferation (CellTiter-Glo) with 1 nM FGF1 + 5 ug/ml heparin” value turned out to be 6.06e-10 M and the “Max Blocking (%), BaF3 proliferation (CellTiter-Glo) with 1 nM FGF1 + 5 ug/ml heparin” value amounted to 98%. In assay [3], the “90 nM hFGFR3b.mmH Bind (RU)” value turned out to be 240 RU; the Kd (in general, the free concentration of one partner at which half of the binding sites on the other are occupied at equilibrium, for simple one-to-one binding) stood at 0.222 nM; the koff (commonly the rate constant with which the complex falls apart) came to 3.83e-05 s⁻¹; the on-rate constant (kon) (usually the second-order rate constant of association) is 172000 M⁻¹ s⁻¹. Further, in assay [3], the t½ – broadly, the time in which the quantity being followed falls by half – is 5.03 h. In [4], the “30 nM hFGFR3b.mFc Bind (RU)” value stood at 296 RU, the Kd was ≤ 0.0226 nM, the koff was ≤ 1e-05 s⁻¹ and the kon came to 442000 M⁻¹ s⁻¹. Moreover, the “t½” value in assay [4] was ≥ 19.2 h. Also, in assay [5], the “IC50, growth of BaF3 cells expressing FGFR3 S249C/V557M (CellTiter-Glo)” value is 3.9 nM. Moreover, in assay [6], the “IC50, growth of BaF3 cells expressing FGFR3 S249C (CellTiter-Glo)” value came to 1.36 nM. In addition, the “IC50, growth of BaF3 cells expressing FGFR3 S249C/V557L (CellTiter-Glo)” value in assay [7] is 4.3 nM. Also, in [8], the “% Blocking at 200 nM mAb” value worked out at 95% and the IC50 (in general, the concentration needed to halve the response being measured) came out at 2 nM. The “90 nM hFGFR3c.mmH Bind (RU)” value in assay [9] was -19.6 RU.
